In patent publication US20070111253A1 (MERCK, published 2007) one finds Kd and IC50 data, which are given here for 2 molecules.

For test [1], the target named is T1, human low-density lipoprotein receptor related protein 5 (LRP5) (human, UniProt O75197 32-1615).
T1 construct: whole, on cells; also called human LRP5
Put plainly: cell binding to HEK 293 cells stably overexpressing human LRP5, time resolved fluorescence of europium label.

Test [2] deals with T1, human low-density lipoprotein receptor …. In words: competition with Eu-rhDkk-1 for binding to human LRP5 on HEK 293 cells, time resolved fluorescence. As for the experimental part:
The rhDkk-1-LRP5 binding assays were carried out as follows. The recombinant HEK 293 cells stably overexpressing human LRP5 were plated into the wells of white/white, 384-well, PDL plates (BD Biosciences, San Jose, Calif.). Each well contained about 10,000 cells and 30 μL of medium containing 2.5% FBS. The next day, to each well, 250 nL of an analyte was added (high concentration copy, CyBi Disk) for final a concentration of about 30 μM. Next, 5 μL of Eu-rhDkk-1 (1 nM) was added to each of the wells (CyBi Well, 0.1 nM final concentration). After incubating at 37° C. for 30 minutes, the wells were washed four times each with a wash solution (Tris-buffered saline, pH 8.0) containing 0.02% Tween-20). After the final wash, 20 μL of Enhancement Solution (Perkin Elmer) was added to each of the wells. After incubating the wells in Enhancement Solution for 30 minutes at room temperature, the wells were vortexed and the time resolved fluorescence from the wells read using the […], a CCD-based optical imaging instrument that can measure fluorescence (Amersham Biosciences, Piscataway, N.J.).

Test [3] has the same target. In words: competition with rhDkk-1-GFP fusion protein for binding to LRP5 on HEK 293 cells, fluorescence imaging (INCell 3000). As for the experimental part: The rhDkk-1-GFP fusion protein-LRP5 binding assays were as follows. Recombinant HEK-293 cells stably overexpressing human LRP5 were plated into the wells of a 384-well tissue culture plate (Corning) at a concentration of about 6,000 cells/well. Each well contained 45 μL of phenol red-free DMEM containing 2.5% FBS. To each well, an analyte was added to give a final concentration of 15 μM. A minute later, 5 μL of conditioned medium containing rhDkk-1-GFP and 10 μM DRAQ5 nuclear stain is added to each well and the wells incubated at 37 °C for 25 minutes. Imaging and evaluation of rhDkk-1-GFP fusion protein binding to the recombinant cells overexpressing LRP5 was determined using an INCell 3000 imager (Amersham, Piscataway, N.J.).

T1 sequence (O75197 32-1615): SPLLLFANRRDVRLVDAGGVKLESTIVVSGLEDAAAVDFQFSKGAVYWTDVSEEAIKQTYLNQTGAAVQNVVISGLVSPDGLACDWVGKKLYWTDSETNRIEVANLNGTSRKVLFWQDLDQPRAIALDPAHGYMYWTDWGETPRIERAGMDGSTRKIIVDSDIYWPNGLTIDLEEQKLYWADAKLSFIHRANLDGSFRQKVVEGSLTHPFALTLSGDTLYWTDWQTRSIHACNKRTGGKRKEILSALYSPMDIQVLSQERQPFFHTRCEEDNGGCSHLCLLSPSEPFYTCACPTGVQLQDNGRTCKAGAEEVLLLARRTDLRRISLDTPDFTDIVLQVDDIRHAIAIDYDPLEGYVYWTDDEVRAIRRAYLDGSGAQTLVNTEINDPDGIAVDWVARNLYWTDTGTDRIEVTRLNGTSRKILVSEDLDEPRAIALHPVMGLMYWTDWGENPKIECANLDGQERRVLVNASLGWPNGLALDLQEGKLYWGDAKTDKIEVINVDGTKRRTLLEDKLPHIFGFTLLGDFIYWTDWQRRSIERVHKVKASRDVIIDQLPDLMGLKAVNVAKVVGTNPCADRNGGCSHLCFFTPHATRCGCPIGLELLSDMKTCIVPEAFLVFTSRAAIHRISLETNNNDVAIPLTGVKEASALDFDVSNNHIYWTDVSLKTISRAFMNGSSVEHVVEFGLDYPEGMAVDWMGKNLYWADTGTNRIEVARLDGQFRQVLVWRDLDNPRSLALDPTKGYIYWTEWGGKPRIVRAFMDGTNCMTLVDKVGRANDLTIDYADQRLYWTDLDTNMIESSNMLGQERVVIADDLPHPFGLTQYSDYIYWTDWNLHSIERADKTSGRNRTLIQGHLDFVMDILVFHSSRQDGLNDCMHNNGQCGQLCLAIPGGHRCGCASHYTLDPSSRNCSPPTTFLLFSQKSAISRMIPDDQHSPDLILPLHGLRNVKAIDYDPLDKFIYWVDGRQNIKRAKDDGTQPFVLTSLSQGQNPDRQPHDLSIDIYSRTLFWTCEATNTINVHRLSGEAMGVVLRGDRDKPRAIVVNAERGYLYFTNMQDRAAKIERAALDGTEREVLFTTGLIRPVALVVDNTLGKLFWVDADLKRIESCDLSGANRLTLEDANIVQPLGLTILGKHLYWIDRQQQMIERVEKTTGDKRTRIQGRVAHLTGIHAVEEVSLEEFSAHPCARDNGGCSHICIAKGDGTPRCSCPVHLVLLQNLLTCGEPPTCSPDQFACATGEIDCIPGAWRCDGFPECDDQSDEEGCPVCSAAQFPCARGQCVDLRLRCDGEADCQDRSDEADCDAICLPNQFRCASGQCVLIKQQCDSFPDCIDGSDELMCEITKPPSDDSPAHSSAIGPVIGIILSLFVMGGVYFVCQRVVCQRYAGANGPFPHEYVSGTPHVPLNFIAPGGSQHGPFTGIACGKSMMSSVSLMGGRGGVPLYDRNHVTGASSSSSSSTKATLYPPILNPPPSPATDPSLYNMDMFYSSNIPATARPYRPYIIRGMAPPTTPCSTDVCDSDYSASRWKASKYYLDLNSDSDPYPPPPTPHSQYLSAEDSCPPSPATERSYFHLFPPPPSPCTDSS

B1: rhDkk-1 comprising a polyhistidine sequence at the carboxy terminus, labeled with europium chelate N1-isothiocyanate (Eu-rhDkk-1) (ligand, not shown: small tags and cut ends)
chain: TLNSVLNSNAIKNLPPPLGGAAGHPGSAVSAAPGILYPGGNKYQTIDNYQPYPCAEDEECGTDEYCASPTRGGDAGVQICLACRKRRKRCMRHAMCCPGNYCKNGICVSSDQNNFRGEIEETITESFGNDHSTLDGYSRRTTLSSKMYHSKGQEGSVCLRSSDCATGLCCARHFWSKICKPVLKEGQVCTKHRRKGSHGLEIFQRCYCGEGLSCRIQKDHHQASNSSRLHTCQRH
modifications: labeled with europium chelate N1-isothiocyanate, about 9 Eu molecules per protein (sites not given)
notes: Produced in baculovirus-infected insect cells and purified on a nickel column; also called labeled RhDkk-1 protein; polyhistidine-tagged RhDkk-1
The molecule B1 returned a dissociation constant Kd in test [1] of about 1 nM.

B2: rhesus monkey dickkopf-1 (rhDkk-1), unlabeled competitor (ligand)
chain: B1 chain
In the case of B2, the IC50 in test [2] was about 0.2 nM; in test [3], about 1 nM.
